# Source: patent publication US20190233494A1 (Sanofi, published 2019)
# Starred links: 1 amine or outer side, 2 acyl side, 3 side chain; linkers in the order of their positions; H or OH if unused. Non-standard residues stand in square brackets, D forms with d. Groups on a side chain read outwards from the residue. *: point of attachment. TTDS = 4-[3-[2-[2-(3-aminopropoxy)ethoxy]ethoxy]propylamino]-4-oxo-butanoyl; Trp(5-Cl) = N[C@@H](Cc1c[nH]c2ccc(Cl)cc12)C(=O)O; γGlu = O=C(O)[C@H](CCC(=O)[*:2])N[*:1]; Stearoyl = CCCCCCCCCCCCCCCCCC(=O)*; Palmitoyl = CCCCCCCCCCCCCCCC(=O)*; αMeK = C[C@](N)(CCCCN)C(=O)O; AEEA = NCCOCCOCC(=O)O; Aib = CC(C)(N)C(=O)O
# T1: RXFP1 receptor (endogenous, on OVCAR5 cells) (UniProt Q9HBX9 1-757, limits assumed)
# T1 sequence (looked up): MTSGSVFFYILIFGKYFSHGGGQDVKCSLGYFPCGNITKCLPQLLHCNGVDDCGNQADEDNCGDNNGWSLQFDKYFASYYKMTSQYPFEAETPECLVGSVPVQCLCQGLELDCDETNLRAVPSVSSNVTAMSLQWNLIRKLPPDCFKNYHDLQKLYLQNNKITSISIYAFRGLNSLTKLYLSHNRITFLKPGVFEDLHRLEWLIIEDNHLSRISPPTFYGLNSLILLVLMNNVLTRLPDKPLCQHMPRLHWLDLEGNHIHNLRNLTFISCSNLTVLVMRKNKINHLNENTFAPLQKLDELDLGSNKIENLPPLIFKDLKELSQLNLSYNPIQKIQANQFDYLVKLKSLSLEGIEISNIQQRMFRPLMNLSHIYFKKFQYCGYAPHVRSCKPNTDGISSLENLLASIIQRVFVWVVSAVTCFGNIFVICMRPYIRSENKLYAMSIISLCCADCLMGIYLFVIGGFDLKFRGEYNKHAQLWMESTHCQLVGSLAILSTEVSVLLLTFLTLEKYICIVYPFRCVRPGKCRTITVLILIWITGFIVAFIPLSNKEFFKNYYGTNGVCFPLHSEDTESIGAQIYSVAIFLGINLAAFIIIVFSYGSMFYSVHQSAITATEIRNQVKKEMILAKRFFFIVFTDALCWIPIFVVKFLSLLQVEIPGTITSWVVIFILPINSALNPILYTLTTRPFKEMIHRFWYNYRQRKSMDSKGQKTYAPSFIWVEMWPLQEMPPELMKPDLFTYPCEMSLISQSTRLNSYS
# B1: peptide of SEQ ID NO: 5 (peptide)
# peptide: Ac-LEGREKVRAK(Ac)I[Aib][Aib]EGK([AEEA-AEEA-AEEA-AEEA-γGlu-γGlu-γGlu-Palmitoyl])STWS[Aib]RKK(Ac)-NH2
# SMILES: CCCCCCCCCCCCCCCC(=O)N[C@@H](CCC(=O)N[C@@H](CCC(=O)N[C@@H](CCC(=O)NCCOCCOCC(=O)NCCOCCOCC(=O)NCCOCCOCC(=O)NCCOCCOCC(=O)NCCCC[C@H](NC(=O)CNC(=O)[C@H](CCC(=O)O)NC(=O)C(C)(C)NC(=O)C(C)(C)NC(=O)[C@@H](NC(=O)[C@H](CCCCNC(C)=O)NC(=O)[C@H](C)NC(=O)[C@H](CCCNC(=N)N)NC(=O)[C@@H](NC(=O)[C@H](CCCCN)NC(=O)[C@H](CCC(=O)O)NC(=O)[C@H](CCCNC(=N)N)NC(=O)CNC(=O)[C@H](CCC(=O)O)NC(=O)[C@H](CC(C)C)NC(C)=O)C(C)C)[C@@H](C)CC)C(=O)N[C@@H](CO)C(=O)N[C@H](C(=O)N[C@@H](Cc1c[nH]c2ccccc12)C(=O)N[C@@H](CO)C(=O)NC(C)(C)C(=O)N[C@@H](CCCNC(=N)N)C(=O)N[C@@H](CCCCN)C(=O)N[C@@H](CCCCNC(C)=O)C(N)=O)[C@@H](C)O)C(=O)O)C(=O)O)C(=O)O
# Biological target: T1, RXFP1 receptor (endogenous, on OVCAR5 …)
# Assay: cell-based or functional assay
Binder,"EC50 (nM), OVCAR 5 cells (cAMP) [nM]","EMax, OVCAR 5 cells (cAMP) [%]"
Ac-LEGREKVRAK(Ac)I[Aib][Aib]EGK([TTDS-TTDS-TTDS-γGlu-γGlu-γGlu-Palmitoyl])STWS[Aib]RKK(Ac)-NH2 [peptide of SEQ ID NO: 1],1.5,99
B1,9.1,85
Ac-LEGREKVRAK(Ac)I[Aib][Aib]EGK([TTDS-TTDS-TTDS-TTDS-γGlu-γGlu-γGlu-Stearoyl])STFS[Aib]RKK(Ac)-NH2 [peptide of SEQ ID NO: 59],0.09,99
Ac-LEGREKVRAK(Ac)I[Aib][Aib]EGK([TTDS-TTDS-γGlu-γGlu-γGlu-Stearoyl])STFS[Aib]RKK(Ac)-NH2 [peptide of SEQ ID NO: 60],0.15,95
Ac-LEGREKVRAK(Ac)I[Aib][Aib]EGK([TTDS-TTDS-TTDS-γGlu-γGlu-γGlu-Stearoyl])STFS[Aib]RKK(Ac)-NH2 [peptide of SEQ ID NO: 61],0.1,97
Ac-LEGREKVRAK(Ac)I[Aib][Aib]EGK([TTDS-TTDS-TTDS-γGlu-γGlu-γGlu-γGlu-Palmitoyl])STWS[Aib]RKK(Ac)-NH2 [peptide of SEQ ID NO: 62],0.6,98
Ac-LEGREKVRAK(Ac)I[Aib][Aib]EGK([TTDS-TTDS-TTDS-γGlu-γGlu-γGlu-Palmitoyl])SQWS[Aib]RKK(Ac)-NH2 [peptide of SEQ ID NO: 63],1.45,97
Ac-LEGREKVRAK(Ac)I[Aib][Aib]EGK([TTDS-TTDS-TTDS-γGlu-γGlu-γGlu-Palmitoyl])SRWS[Aib]RKK(Ac)-NH2 [peptide of SEQ ID NO: 64],0.52,95
Ac-LEGREKVRAK(Ac)I[Aib][Aib]EGK([TTDS-TTDS-γGlu-γGlu-γGlu-Stearoyl])STWS[Aib]RKK(Ac)-NH2 [peptide of SEQ ID NO: 6],0.27,95
Ac-LEGREKVRK(Ac)QI[Aib][Aib]EGK([TTDS-TTDS-TTDS-γGlu-γGlu-γGlu-Palmitoyl])STWS[Aib]RKK(Ac)-NH2 [peptide of SEQ ID NO: 65],1.19,95
Ac-LEGREKVRAK(Ac)I[Aib][Aib]EGK([TTDS-TTDS-TTDS-γGlu-γGlu-γGlu-Palmitoyl])STWK(Ac)[Aib]RAK(Ac)-NH2 [peptide of SEQ ID NO: 66],6.31,93
Ac-LEGRERVRAK(Ac)I[Aib][Aib]EGK([TTDS-TTDS-TTDS-γGlu-γGlu-γGlu-Palmitoyl])STWS[Aib]RKK(Ac)-NH2 [peptide of SEQ ID NO: 67],0.48,95
Ac-LEGREKVRAK(Ac)I[Aib][Aib]EGK([TTDS-TTDS-TTDS-γGlu-γGlu-γGlu-Palmitoyl])STWS[Aib]RK(Ac)K-NH2 [peptide of SEQ ID NO: 68],0.88,98
Ac-LEGREKVRAK(Ac)I[Aib][Aib]EGK([TTDS-TTDS-TTDS-γGlu-γGlu-γGlu-Palmitoyl])STWS[Aib]RK(Ac)R-NH2 [peptide of SEQ ID NO: 69],0.78,97
Ac-LEGREKVRAK(Ac)I[Aib]IEGK([TTDS-TTDS-TTDS-γGlu-γGlu-γGlu-Palmitoyl])STWS[Aib]RKK(Ac)-NH2 [peptide of SEQ ID NO: 70],1.34,94
Ac-LEGREKVRAK(Ac)I[Aib][Aib]EGK([TTDS-TTDS-TTDS-γGlu-γGlu-γGlu-Palmitoyl])STWS[Aib]RAK-NH2 [peptide of SEQ ID NO: 71],0.36,95
Ac-LEGREKVRAK(Ac)I[Aib][Aib]EGK([TTDS-TTDS-TTDS-γGlu-γGlu-γGlu-Palmitoyl])STF[Aib]RRAK(Ac)-NH2 [peptide of SEQ ID NO: 72],0.56,91
Ac-LEGREKVRAK(Ac)I[Aib][Aib]EGK([TTDS-TTDS-TTDS-γGlu-γGlu-γGlu-Palmitoyl])SKWS[Aib]RAK-NH2 [peptide of SEQ ID NO: 73],0.2,95
Ac-LEGREKVRAK(Ac)I[Aib]IEGK([TTDS-TTDS-TTDS-TTDS-γGlu-γGlu-γGlu-Palmitoyl])STWS[Aib]RKK(Ac)-NH2 [peptide of SEQ ID NO: 74],0.54,94
Ac-LEGREKVRAK(Ac)I[Aib][Aib]EGK([TTDS-TTDS-TTDS-γGlu-γGlu-γGlu-Stearoyl])STFS[αMeK]RAK(Ac)-NH2 [peptide of SEQ ID NO: 7],0.07,95
Ac-LEGRERVRAK(Ac)I[Aib][Aib]EGK([TTDS-TTDS-TTDS-TTDS-γGlu-γGlu-γGlu-Palmitoyl])STWS[Aib]RRK(Ac)-NH2 [peptide of SEQ ID NO: 75],0.19,97
Ac-LEGRERVRAK(Ac)I[Aib][Aib]EGK([TTDS-TTDS-TTDS-γGlu-γGlu-γGlu-Palmitoyl])STFS[Aib]RRK(Ac)-NH2 [peptide of SEQ ID NO: 76],0.18,96
Ac-LEGRERVRAK(Ac)I[Aib][Aib]EGK([TTDS-TTDS-TTDS-TTDS-γGlu-γGlu-γGlu-Palmitoyl])STFS[Aib]RRK(Ac)-NH2 [peptide of SEQ ID NO: 77],0.11,98
Ac-LEGREKVRAK(Ac)I[Aib][Aib]EGK([TTDS-TTDS-TTDS-TTDS-γGlu-γGlu-γGlu-Palmitoyl])STFS[αMeK]RAK(Ac)-NH2 [peptide of SEQ ID NO: 78],0.18,99
Ac-LEGREKVRAK(Ac)I[Aib][Aib]EGK([TTDS-TTDS-TTDS-γGlu-γGlu-γGlu-Palmitoyl])SKFS[Aib]RKK(Ac)-NH2 [peptide of SEQ ID NO: 79],0.45,95
Ac-LEGRERVRAK(Ac)I[Aib][Aib]EGK([TTDS-TTDS-TTDS-γGlu-γGlu-γGlu-Palmitoyl])ST[Trp(5-Cl)]S[Aib]RRK(Ac)-NH2 [peptide of SEQ ID NO: 80],0.63,93
Ac-K(Ac)EGREKVRAK(Ac)I[Aib][Aib]EGK([TTDS-TTDS-TTDS-γGlu-γGlu-γGlu-Palmitoyl])STFS[αMeK]RAK(Ac)-NH2 [peptide of SEQ ID NO: 81],0.16,98
